# From IntAct's records for PubMed 24316736
# B1: Ubiquitin-conjugating enzyme E2 R1 (Homo sapiens), P49427 (parent)
# chain: MARPLVPSSQKALLLELKGLQEEPVEGFRVTLVDEGDLYNWEVAIFGPPNTYYEGGYFKARLKFPIDYPYSPPAFRFLTKMWHPNIYETGDVCISILHPPVDDPQSGELPSERWNPTQNVRTILLSVISLLNEPNTFSPANVDASVMYRKWKESKGKDREYTDIIRKQVLGTKVDAERDGVKVPTTLAEYCVKTKAPAPDEGSDLFYDDYYEDGEVEEEADSCFGDDEDDSGTEES
# Variants of: B1
# Conditions: with rbx1_human RBX1, P62877
# Chain of rbx1_human RBX1, P62877 (P62877 whole entry, looked up): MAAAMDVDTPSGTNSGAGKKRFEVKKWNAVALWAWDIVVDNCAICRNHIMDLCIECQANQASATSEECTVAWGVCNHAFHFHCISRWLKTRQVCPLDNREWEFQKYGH
row,effect of a mutation on the interaction,Variant
1,disrupting interaction strength,MARPLVPSSQKALLLELKGLQEEPVEGFRVTLVDEGDLYNWEVAIFGPPNTYYEGGYFKARLKFPIDYPRSPPAFRFLTKMWHPNIYETGDVCISILHPPVDDPQSGELPSERWNPTQNVRTILLSVISLLNEPNTFSPANVDASVMYRKWKESKGKDREYTDIIRKQVLGTKVDAERDGVKVPTTLAEYCVKTKAPAPDEGSDLFYDDYYEDGEVEEEADSCFGDDEDDSGTEES [Y70R]
2,disrupting interaction strength,MARPLVPSSQKALLLELKGLQEEPVEGFRVTLVDEGDLYNWEVAIFGPPNTYYEGGYFKARLKFPIDYPYSPPAFRFLTKMWHPNIYETGDVCISILHPPVDDPQSGELPSERWNPEQNVRTILLSVISLLNEPNTFSPANVDASVMYRKWKESKGKDREYTDIIRKQVLGTKVDAERDGVKVPTTLAEYCVKTKAPAPDEGSDLFYDDYYEDGEVEEEADSCFGDDEDDSGTEES [T117E]
